Laboratory results taken from the Human Domainome abundance scans (Beltran et al. 2025).
± gives the uncertainty stated by the source.

B1: POU domain, class 4, transcription factor 3, residues 185 to 256; numbered along this chain, Q15319 (parent)
chain: RELEAFAERFKQRRIKLGVTQADVGAALANLKIPGVGSLSQSTICRFESLTLSHNNMIALKPVLQAWLEEAE

Variants of: B1
Assay: abundance fitness (aPCA) (normalised: wild type 0, dead -1); higher = more abundant; growth selection in yeast, the domain comes from the species named
Conditions: Homo sapiens

Variant	abundance fitness
RELEAFAERFKQRRIKLGVTQADVGAALANLKIPGVGSLSQSTICRFESLTLSHNNMIALKKVLQAWLEEAE [P62K]	-0.177 ± 0.052
RELEAFAERFKQRRIKLGVTQADVGAALANLKIPGVGSLSQSTICRFESLTLSHNNMIALKHVLQAWLEEAE [P62H]	-0.109 ± 0.12
RELEAFAERFKQRRIKLGVTQADVGAALANLKIPGVGSLSQSTICRFESLTLSHNNMIALKPVLQAFLEEAE [W67F]	-0.06 ± 0.065
RELEAFAERFKQRRIKLGVTQADVGIALANLKIPGVGSLSQSTICRFESLTLSHNNMIALKPVLQAWLEEAE [A26I]	-0.133 ± 0.068
RELEAFAERFKQRRIKLGVTQADVGAALANLKIPGVGSLSQSTICPFESLTLSHNNMIALKPVLQAWLEEAE [R46P]	-1.17 ± 0.14
RELEAFAERFKQRRIKLGVTQADVGAALANLKIPGVGSLSQSTICRFESLTLSHNGMIALKPVLQAWLEEAE [N56G]	-0.035 ± 0.41
RELEAFAERFKQRRIKLGVTQADVGAALANLKIPGVGSLSQSTICRFESLTLSHNTMIALKPVLQAWLEEAE [N56T]	-0.588 ± 0.43
RELEAFAERFKQRRIKLGVTQADVGAALANLKIPGVGSLSQSTICRFESLTLSHNNTIALKPVLQAWLEEAE [M57T]	-0.174 ± 0.096
RELEAFAERFKQRRIKLGVTQADVGAALANLKIPGVGSLSQSTICRFESLTLSHNNGIALKPVLQAWLEEAE [M57G]	-0.634 ± 0.15
RELEAFAERFKQRRIKLGVTQADVGAALANLKIPGVGSLSQSTICRFESLTLSHNNMIALIPVLQAWLEEAE [K61I]	-0.128 ± 0.069
RELEAFAERFKQMRIKLGVTQADVGAALANLKIPGVGSLSQSTICRFESLTLSHNNMIALKPVLQAWLEEAE [R13M]	-0.094 ± 0.062
RELEAFAERFKQKRIKLGVTQADVGAALANLKIPGVGSLSQSTICRFESLTLSHNNMIALKPVLQAWLEEAE [R13K]	-0.019 ± 0.067
RELEAFAEWFKQRRIKLGVTQADVGAALANLKIPGVGSLSQSTICRFESLTLSHNNMIALKPVLQAWLEEAE [R9W]	-0.146 ± 0.1
RELEAFAERFKQRRIKLGVTQADVGAALANLKIPGVGSLSQSTICRFESLTLSHNNMIALKPVLQGWLEEAE [A66G]	-0.013 ± 0.092
RELEAFAERFKQRRIKLGVTQADVGAALAELKIPGVGSLSQSTICRFESLTLSHNNMIALKPVLQAWLEEAE [N30E]	-0.083 ± 0.091
RELEAFAERFKQRRIKLGVTQADVGAALALLKIPGVGSLSQSTICRFESLTLSHNNMIALKPVLQAWLEEAE [N30L]	-0.279 ± 0.049
RELEAFAERFKQRRIKLGVTQADVGAALQNLKIPGVGSLSQSTICRFESLTLSHNNMIALKPVLQAWLEEAE [A29Q]	0.123 ± 0.11
RELEAFAERFKQRRIKLGVDQADVGAALANLKIPGVGSLSQSTICRFESLTLSHNNMIALKPVLQAWLEEAE [T20D]	-0.562 ± 0.19

Variant	abundance fitness
RELEAFAERIKQRRIKLGVTQADVGAALANLKIPGVGSLSQSTICRFESLTLSHNNMIALKPVLQAWLEEAE [F10I]	-0.813 ± 0.3
RELEAFAERFKQRRIKLFVTQADVGAALANLKIPGVGSLSQSTICRFESLTLSHNNMIALKPVLQAWLEEAE [G18F]	-0.784 ± 0.14
RELEAFAERFKQRRIKLWVTQADVGAALANLKIPGVGSLSQSTICRFESLTLSHNNMIALKPVLQAWLEEAE [G18W]	-1.05 ± 0.2
RELEAFAERFKQRRIKLGVTQADVGAALANLKIPGVGSLSQSTICRFESLTLSHNNMIALKPVSQAWLEEAE [L64S]	-0.768 ± 0.076
RELEAFAERFKQRRIKLGVTQADVGAALANWKIPGVGSLSQSTICRFESLTLSHNNMIALKPVLQAWLEEAE [L31W]	-0.008 ± 0.2
RELEAFAERFKQRRIKLGMTQADVGAALANLKIPGVGSLSQSTICRFESLTLSHNNMIALKPVLQAWLEEAE [V19M]	0.12 ± 0.058
RELEAFAERFKQRRIKLGVTQTDVGAALANLKIPGVGSLSQSTICRFESLTLSHNNMIALKPVLQAWLEEAE [A22T]	-0.207 ± 0.054
RELEAFAERFKQRRIKLGVTQPDVGAALANLKIPGVGSLSQSTICRFESLTLSHNNMIALKPVLQAWLEEAE [A22P]	-0.469 ± 0.05
RELEAFAERFKQRRIKLGVTQDDVGAALANLKIPGVGSLSQSTICRFESLTLSHNNMIALKPVLQAWLEEAE [A22D]	-0.176 ± 0.14
RELEAFAERFKQRRGKLGVTQADVGAALANLKIPGVGSLSQSTICRFESLTLSHNNMIALKPVLQAWLEEAE [I15G]	-0.423 ± 0.14
RELEAFAERFKQRCIKLGVTQADVGAALANLKIPGVGSLSQSTICRFESLTLSHNNMIALKPVLQAWLEEAE [R14C]	-0.887 ± 0.13
RELEAFAERFKQRRIKLGVTQADVGAALANLKIPGIGSLSQSTICRFESLTLSHNNMIALKPVLQAWLEEAE [V36I]	0.117 ± 0.097
RELEAFADRFKQRRIKLGVTQADVGAALANLKIPGVGSLSQSTICRFESLTLSHNNMIALKPVLQAWLEEAE [E8D]	-0.05 ± 0.14
RELEAFAERFKQRRIKLGVTQADVGAALANLKIPGVGSLAQSTICRFESLTLSHNNMIALKPVLQAWLEEAE [S40A]	-0.222 ± 0.07
RELEAFAERFKQRRIKLGVTAADVGAALANLKIPGVGSLSQSTICRFESLTLSHNNMIALKPVLQAWLEEAE [Q21A]	-0.086 ± 0.12
RELEAFAERFKQRRIKLGVTHADVGAALANLKIPGVGSLSQSTICRFESLTLSHNNMIALKPVLQAWLEEAE [Q21H]	0.294 ± 0.16
RELEAFAERFKQRRIKLGVTQADVGAALANLYIPGVGSLSQSTICRFESLTLSHNNMIALKPVLQAWLEEAE [K32Y]	-0.12 ± 0.051
RELEAFAERFKQRRIKLGVTQADVGAALANLMIPGVGSLSQSTICRFESLTLSHNNMIALKPVLQAWLEEAE [K32M]	-0.048 ± 0.061
